# Source: article PMC3298681 (Molecular Cell, 2011)
# B1: DgcB (CC1850), purified (enzyme, Caulobacter crescentus, UniProt Q9A776 1-353, looked up)
# chain: MSDVETTLRGPEAYKIASRALELMERHQVWPTALNFELWTHYVADPNGALARELTRLISLGEPMTELVSEELAATFLPKARLNEQIRDAGDILSKELEAVSKAIQNAQKSNAAFGQELAGASKSLDTHTDVASIKAVVGSIAEATRRVHKENQSLEARLADSTAEVERLREHLEQVRRDATTDGLTNLANRKAFDDELDRACAEAEEGGTTICLAVLDIDHFKGFNDTWGHQTGDQVIRYVASVIGRVAAPPRFAARYGGEEFAMIFPREAASVVATTLEEIRVEVSSRMLKRRSTNEDLGAITVSSGFAERKPGESGHSVMERADAALYASKRGGRNRVTAAESMPGAANAA
# Molecular target: the molecule itself
protein,measurement,value
B1,stoichiometry N,2
